T1: SDR5C1, wild type, N-terminally His-tagged (human), Q99714
T1 chain: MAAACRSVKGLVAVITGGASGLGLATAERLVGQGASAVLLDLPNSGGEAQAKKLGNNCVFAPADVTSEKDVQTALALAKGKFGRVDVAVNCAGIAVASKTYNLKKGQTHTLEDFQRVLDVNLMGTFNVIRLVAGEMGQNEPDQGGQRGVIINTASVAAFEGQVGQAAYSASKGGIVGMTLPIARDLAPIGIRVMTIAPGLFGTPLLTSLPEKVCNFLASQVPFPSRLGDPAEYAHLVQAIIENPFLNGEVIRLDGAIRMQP

B1: SDR5C1 R130C, N-terminally His-tagged (enzyme)
chain: MAAACRSVKGLVAVITGGASGLGLATAERLVGQGASAVLLDLPNSGGEAQAKKLGNNCVFAPADVTSEKDVQTALALAKGKFGRVDVAVNCAGIAVASKTYNLKKGQTHTLEDFQRVLDVNLMGTFNVICLVAGEMGQNEPDQGGQRGVIINTASVAAFEGQVGQAAYSASKGGIVGMTLPIARDLAPIGIRVMTIAPGLFGTPLLTSLPEKVCNFLASQVPFPSRLGDPAEYAHLVQAIIENPFLNGEVIRLDGAIRMQP
B2: SDR5C1 P210S, N-terminally His-tagged (enzyme)
chain: MAAACRSVKGLVAVITGGASGLGLATAERLVGQGASAVLLDLPNSGGEAQAKKLGNNCVFAPADVTSEKDVQTALALAKGKFGRVDVAVNCAGIAVASKTYNLKKGQTHTLEDFQRVLDVNLMGTFNVIRLVAGEMGQNEPDQGGQRGVIINTASVAAFEGQVGQAAYSASKGGIVGMTLPIARDLAPIGIRVMTIAPGLFGTPLLTSLSEKVCNFLASQVPFPSRLGDPAEYAHLVQAIIENPFLNGEVIRLDGAIRMQP
B3: SDR5C1 K172A, N-terminally His-tagged (enzyme)
chain: MAAACRSVKGLVAVITGGASGLGLATAERLVGQGASAVLLDLPNSGGEAQAKKLGNNCVFAPADVTSEKDVQTALALAKGKFGRVDVAVNCAGIAVASKTYNLKKGQTHTLEDFQRVLDVNLMGTFNVIRLVAGEMGQNEPDQGGQRGVIINTASVAAFEGQVGQAAYSASAGGIVGMTLPIARDLAPIGIRVMTIAPGLFGTPLLTSLPEKVCNFLASQVPFPSRLGDPAEYAHLVQAIIENPFLNGEVIRLDGAIRMQP
B4: SDR5C1 R226Q, N-terminally His-tagged (enzyme)
chain: MAAACRSVKGLVAVITGGASGLGLATAERLVGQGASAVLLDLPNSGGEAQAKKLGNNCVFAPADVTSEKDVQTALALAKGKFGRVDVAVNCAGIAVASKTYNLKKGQTHTLEDFQRVLDVNLMGTFNVIRLVAGEMGQNEPDQGGQRGVIINTASVAAFEGQVGQAAYSASKGGIVGMTLPIARDLAPIGIRVMTIAPGLFGTPLLTSLPEKVCNFLASQVPFPSQLGDPAEYAHLVQAIIENPFLNGEVIRLDGAIRMQP
B5: SDR5C1 N247S, N-terminally His-tagged (enzyme)
chain: MAAACRSVKGLVAVITGGASGLGLATAERLVGQGASAVLLDLPNSGGEAQAKKLGNNCVFAPADVTSEKDVQTALALAKGKFGRVDVAVNCAGIAVASKTYNLKKGQTHTLEDFQRVLDVNLMGTFNVIRLVAGEMGQNEPDQGGQRGVIINTASVAAFEGQVGQAAYSASKGGIVGMTLPIARDLAPIGIRVMTIAPGLFGTPLLTSLPEKVCNFLASQVPFPSRLGDPAEYAHLVQAIIENPFLSGEVIRLDGAIRMQP

What was measured:
[1] = molecular target: T1, SDR5C1, wild type, N-terminally …; assay: native gel or EMSA; conditions: remark: other sources report otherwise
native gel or EMSA = molecular target: the molecule itself; assay: native gel or EMSA
SEC = molecular target: the molecule itself; assay: SEC
[2] = molecular target: B4; assay: pull-down
[3] = molecular target: B5; assay: pull-down
[4] = molecular target: B2; assay: pull-down
[5] = molecular target: B3; assay: pull-down
[6] = molecular target: B1; assay: pull-down

Binder | Tetramerized SDR5C1 (percent) (native gel or EMSA) [%] | stoichiometry N (SEC) | other results
SDR5C1, wild type, N-terminally His-tagged, Q99714 1-261 (enzyme) MAAACRSVKGLVAVITGGASGLGLATAERLVGQGASAVLLDLPNSGGEAQAKKLGNNCVFAPADVTSEKDVQTALALAKGKFGRVDVAVNCAGIAVASKTYNLKKGQTHTLEDFQRVLDVNLMGTFNVIRLVAGEMGQNEPDQGGQRGVIINTASVAAFEGQVGQAAYSASKGGIVGMTLPIARDLAPIGIRVMTIAPGLFGTPLLTSLPEKVCNFLASQVPFPSRLGDPAEYAHLVQAIIENPFLNGEVIRLDGAIRMQP |  |  | Tetramerized SDR5C1 (percent) [1]: 100%
B1 | 100 | 4 | 
B2 | 100 | 4 | 
B3 | 100 | 4 | 
TRMT10C, native (untagged) (enzyme) MSSKIPAVTYPKNESTPPSEELELDKWKTTMKSSVQEECVSTISSSKDEDPLAATREFIEMWRLLGREVPEHITEEELKTLMECVSNTAKKKYLKYLYTKEKVKKARQIKKEMKAAAREEAKNIKLLETTEEDKQKNFLFLRLWDRNMDIAMGWKGAQAMQFGQPLVFDMAYENYMKRKELQNTVSQLLESEGWNRRNVDPFHIYFCNLKIDGALHRELVKRYQEKWDKLLLTSTEKSHVDLFPKDSIIYLTADSPNVMTTFRHDKVYVIGSFVDKSMQPGTSLAKAKRLNLATECLPLDKYLQWEIGNKNLTLDQMIRILLCLKNNGNWQEALQFVPKRKHTGFLEISQHSQEFINRLKKAKT |  |  | Complexed TRMT10C (mass percentage of the complex) [2]: 14.3%; Complexed TRMT10C (mass percentage of the complex) [3]: 9.3%; Complexed TRMT10C (mass percentage of the complex) [4]: 39.7%; Complexed TRMT10C (mass percentage of the complex) [5]: 43%; Complexed TRMT10C (mass percentage of the complex) [6]: 28.7%
B4 | 26 |  | 
B5 | 25.8 |  | 
